The target in this data set is SARS-CoV-2 spike protein (original strain) (SARS-CoV-2) (UniProt P0DTC2). As to the kind of experiment: flow.

This passage reports Kd results from patent publication US20250207140.

For orientation: Kd means the equilibrium constant for the complex coming apart. A lower Kd goes with higher affinity.

The substance Control (-) Apt targeting CD8 returned a Kd of 312 nM.
